From article PMC8158037, “Staphylococcus aureus N-terminus formylated δ-toxin tends to form amyloid fibrils, while the deformylated δ-toxin tends to form functional oligomer complexes” (Virulence, 2021)
No end group written: not given here. *: point of attachment. For = O=C*

B1: PSMα1 (secreted by S. aureus MW2) (peptide)
chain: MGIIAGIIKVIKSLIEQFTGK
notes: also called phenol-soluble modulin α1
B2: PSMα2 (secreted by S. aureus MW2) (peptide)
chain: MGIIAGIIKFIKGLIEKFTGK
notes: also called phenol-soluble modulin α2
B3: PSMα4, synthetic peptide (peptide)
chain: For-MAIVGTIIKIIKAIIDIFAK
notes: source: synthetic peptide (Sangon Biotech, purity > 95%)
B4: PSMα3, synthetic peptide (peptide)
chain: For-MEFVAKLFKFFKDLLGKFLGNN
notes: as for B3
B5: PSMα3 (secreted by S. aureus MW2) (peptide)
chain: MEFVAKLFKFFKDLLGKFLGNN
notes: also called phenol-soluble modulin α3
B6: PSMα1, synthetic peptide (peptide)
chain: For-MGIIAGIIKVIKSLIEQFTGK
notes: as for B3
B7: PSMα2, synthetic peptide (peptide)
chain: For-MGIIAGIIKFIKGLIEKFTGK
notes: as for B3

Assays:
Test in all cases: co-IP
Conditions in all cases: both partners purified
[1] = biological target: T1, δ-toxin (secreted by S. aureus MW2 and its ΔPSMα strain) (Staphylococcus aureus MW2, N-terminal methionine formylated in part of the peptides (fδ-toxin) and deformylated in the rest (dfδ-toxin); Aggregate1 more than 50% fδ-toxin, Aggregate2 more than 85% dfδ-toxin)
T1 construct: also called PSMγ; δ-hemolysin

[2] = biological target: B2
[3] = biological target: B5
[4] = biological target: B1
PSMα1, synthetic peptide = biological target: B6
PSMα2, synthetic peptide = biological target: B7
PSMα3, synthetic peptide = biological target: B4
[5] = biological target: T2, deformylated δ-toxin, synthetic peptide (Staphylococcus aureus)
T2 construct: also called dfδ-toxin

[6] = biological target: T3, N-terminus formylated δ-toxin, synthetic peptide (Staphylococcus aureus, N-formylmethionine at the N-terminus (fM))
T3 construct: also called fδ-toxin

Measured: binding result

B1
binds: [1] | [2] | [3]

B2
binds: [1] | [4] | [3]

B3
binds: PSMα1, synthetic peptide | PSMα2, synthetic peptide | PSMα3, synthetic peptide | [5] | [6]

B4
binds: PSMα1, synthetic peptide | PSMα2, synthetic peptide | [5] | [6]

B5
binds: [1] | [2] | [4]

MAIVGTIIKIIKAIIDIFAK (also called phenol-soluble modulin α4) [PSMα4 (secreted by S. aureus MW2)]
binds: [1] | [2] | [4] | [3]

B6
binds: PSMα2, synthetic peptide | PSMα3, synthetic peptide | [5] | [6]

B7
binds: PSMα1, synthetic peptide | PSMα3, synthetic peptide | [5] | [6]
